One block for each molecule: values may come before it.
Key:
[1] = molecular target: zebrafish PATZ1 BTB domain (residues 1-135) (zebrafish (Danio rerio)); assay: SEC
SEC = molecular target: the molecule itself; assay: SEC

stoichiometry N [1]: 2
Molecule: zebrafish PATZ1 BTB domain (residues 1-135) (domain or fragment)

B1: mouse PATZ1 BTB domain (residues 12-166) (domain or fragment)
chain: SGCYTYQVSRHSTEMLHNLNQQRKNGGRFCDVLLRVGDESFPAHRAVLAACSEYFESVFSAQLGDGGAADGGPADVGGAAAAPGGGAGGSRELEMHTISSKVFGDILDFAYTSRIVVRLESFPELMTAAKFLLMRSVIEICQEVIKQSNVQILVP
stoichiometry N (SEC): 2
